According to article PMC4944982:

What was measured:
[1] = biological target: human FGFR1 (transcript variant 2), overexpressed on HEK293T cells (human) (UniProt P11362); test: bioluminescent (NanoLuc) competition binding on living cells; adherent HEK293T cells transiently overexpressing human FGFR1; constant FGF2-Luc as tracer and various concentrations of wild-type or mutant FGF2 in serum-free DMEM plus 1% BSA and 5 μg/ml heparin, 20°C, 2–3 h
[2] = biological target: endogenous FGF receptor of untransfected HEK293T cells (human (endogenous in HEK293T)) (UniProt P11362); test: bioluminescent (NanoLuc) competition binding on living cells; untransfected HEK293T cells in suspension in a 96-well filtration plate; constant FGF2-Luc as tracer and various concentrations of wild-type or mutant FGF2 in serum-free DMEM plus 1% BSA and 5 μg/ml heparin, 20°C, 2–3 h
[3] = biological target: endogenous FGF receptor of untransfected HEK293T cells (human (endogenous in HEK293T)) (UniProt P11362)
[4] = biological target: endogenous FGF receptor of untransfected HEK293T cells (human (endogenous in HEK293T)) (UniProt P11362); test: bioluminescent (NanoLuc) saturation binding on living cells; untransfected HEK293T cells in suspension in a 96-well filtration plate; various concentrations of FGF2-Luc in serum-free DMEM plus 1% BSA and 5 μg/ml heparin, 20°C, 2–3 h; nonspecific binding with 250 nM 6×His-FGF2; one-site model
[5] = biological target: human FGFR1 (transcript variant 2), overexpressed on HEK293T cells (human) (UniProt P11362); test: bioluminescent (NanoLuc) saturation binding on living cells; adherent HEK293T cells transiently overexpressing human FGFR1 in 96-well plates; various concentrations of FGF2-Luc in serum-free DMEM plus 1% BSA and 5 μg/ml heparin, 20°C, 2–3 h; nonspecific binding with 250 nM 6×His-FGF2; one-site model

Row | Substance | IC50 [1] | IC50 [2] | EC50 of activation of a serum response element (SRE)-controlled NanoLuc reporter in HEK293T cells [3] | Kd [4] | Kd [5]
1 | 6×His-[Y32A]FGF2 (ligand) | 3.45 nM | 5.4 nM | 0.309 nM |  | 
2 | NanoLuc-conjugated FGF2 (FGF2-Luc) (ligand) |  |  |  | 0.025 nM | 0.161 nM
3 | 6×His-FGF2 (ligand) | 0.65 nM | 0.081 nM | 0.058 nM |  | 
4 | 6×His-[C95S]FGF2 (ligand) |  |  | 0.1 nM |  | 
5 | 6×His-[Y111A]FGF2 (ligand) | 5.88 nM | 10 nM | 0.794 nM |  | 
